{"source": "paper PMC2893164", "about": "“Structural Basis of Gate-DNA Breakage and Resealing by Type II Topoisomerases”", "biological_target": "ParC55 (topoisomerase IV ParC breakage-reunion domain);ParE30 (topoisomerase IV ParE TOPRIM domain) (Streptococcus pneumoniae;Streptococcus …, UniProt P72525;Q59961 1-488;404-647, |)", "sequence (P72525 1-488, chain 1 of 2)": "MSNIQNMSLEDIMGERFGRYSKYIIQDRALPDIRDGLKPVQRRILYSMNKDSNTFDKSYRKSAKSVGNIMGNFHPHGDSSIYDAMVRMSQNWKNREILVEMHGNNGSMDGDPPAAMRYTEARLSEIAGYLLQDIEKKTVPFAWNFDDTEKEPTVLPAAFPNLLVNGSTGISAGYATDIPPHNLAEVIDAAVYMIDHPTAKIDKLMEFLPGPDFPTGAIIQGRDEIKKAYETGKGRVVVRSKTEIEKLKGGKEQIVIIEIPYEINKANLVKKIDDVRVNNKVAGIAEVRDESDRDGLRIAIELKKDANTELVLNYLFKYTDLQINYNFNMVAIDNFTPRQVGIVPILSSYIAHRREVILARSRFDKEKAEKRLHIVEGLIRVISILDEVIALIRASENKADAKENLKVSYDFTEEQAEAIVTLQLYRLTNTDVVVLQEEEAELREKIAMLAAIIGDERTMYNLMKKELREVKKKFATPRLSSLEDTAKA", "sequence (Q59961 404-647, chain 2 of 2)": "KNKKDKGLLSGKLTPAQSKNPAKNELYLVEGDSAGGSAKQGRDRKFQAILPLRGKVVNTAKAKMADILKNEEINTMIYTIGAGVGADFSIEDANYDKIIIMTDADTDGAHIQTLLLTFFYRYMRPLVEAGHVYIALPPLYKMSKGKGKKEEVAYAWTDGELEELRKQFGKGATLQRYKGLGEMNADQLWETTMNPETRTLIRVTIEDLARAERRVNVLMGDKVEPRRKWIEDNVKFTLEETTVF", "test": "X-ray crystallography (3.1 A); PD 0305970 (two intercalated), Mg2+; cleaved DNA, covalent Tyr118; Complex: 20 mM Tris-HCl pH 7.0, 200 then 75 mM NaCl, 10% glycerol, 1 mM b-mercaptoethanol, 20 mM MgCl2, 0.05% NaN3, PD 0305970, room temperature; crystals: 50 mM Na cacodylate pH 6.5, 2.5% Tacsimate pH 7.0, 62.5 mM KCl, 7.5 mM MgCl2, 4-6% isopropanol; data at 100 K", "conditions": "protein: recombinant;recombinant; tags: C-terminal His tag;N-terminal His tag; chain copies: 2;2; blunt", "data": [{"binder": "34-bp E-site G-segment DNA (dsDNA, none (cleaved with 4-bp stagger in the complex, or resealed, by row)) DNA 1: ACCAAGGTCATGAATGACTATGCACGTAAAACAG DNA 2: CTGTTTTACGTGCATAGTCATTCATGACCTTGGT", "values": [{"measurement": "binding result", "value": "binds"}]}]}
